Measurements published in US20150329642A1.
pEC50, pKd: −log10 of the molar value. Blank lines part the entries; values can stand above or below the substance they belong to.

Columns and labels:
[1] = biological target: human c-Met, membrane-bound on cells (human) (UniProt P08581); experiment: flow cytometry on A431 cells (PE goat anti-human IgG); top panel
cMetECDHis (human) [2] = biological target: cMetECDHis (human) (UniProt P08581); experiment: cross-block ELISA; competitor 069
cMetECDHis (human) [3] = biological target: cMetECDHis (human) (UniProt P08581); experiment: cross-block ELISA; competitor 058
cMetSEMA-567His8 (human) = cMetSEMA-567His8 (human) (UniProt P08581); experiment: TR-FRET; displacement of AlexaFluor-647-HGF from cMetSEMA-567His8
cMetECDHis (human) [4] = biological target: cMetECDHis (human) (UniProt P08581); experiment: cross-block ELISA; competitor 035
cMetECDHis (human) [5] = biological target: cMetECDHis (human) (UniProt P08581); experiment: cross-block ELISA; competitor 045
[6] = biological target: recombinant human c-Met extracellular domain (R&D systems) (human) (UniProt P08581); experiment: competition ELISA, residual Europium-HGF signal at 615 nm at the lower plateau of the fit; sheet prints no competing mAb ~66000, no HGF-Europium ~600; upper panel
cMetECDHis (human) [7] = biological target: cMetECDHis (human) (UniProt P08581); experiment: cross-block ELISA; competitor 101
cMetECDHis (human) [8] = biological target: cMetECDHis (human) (UniProt P08581); experiment: cross-block ELISA; competitor 098
cMetECDHis (human) [9] = biological target: cMetECDHis (human) (UniProt P08581); experiment: BLI (Octet); antibody captured, cMetECDHis in solution
cMetECDHis (human) [10] = biological target: cMetECDHis (human) (UniProt P08581); experiment: cross-block ELISA; competitor G11-HZ
cMetECDHis (human) [11] = biological target: cMetECDHis (human) (UniProt P08581); experiment: cross-block ELISA; competitor 181
cMetECDHis (human) [12] = biological target: cMetECDHis (human) (UniProt P08581); experiment: cross-block ELISA; competitor 022
cMetECDHis (human) [13] = biological target: cMetECDHis (human) (UniProt P08581); experiment: cross-block ELISA; competitor 064
cMetECDHis (human) [14] = biological target: cMetECDHis (human) (UniProt P08581); experiment: cross-block ELISA; competitor 068
[15] = biological target: recombinant human c-Met extracellular domain (R&D systems) (human) (UniProt P08581); experiment: competition ELISA on coated recombinant c-Met extracellular domain; blocked ligand Europium-conjugated HGF; column headed EC50 on the sheet, called IC50 in paragraph 270; upper panel
cMetECDHis (human) [16] = biological target: cMetECDHis (human) (UniProt P08581); experiment: cross-block ELISA; competitor 008
cMetECDHis (human) [17] = biological target: cMetECDHis (human) (UniProt P08581); experiment: cross-block ELISA; competitor 5D5
cMetECDHis (human) [18] = biological target: cMetECDHis (human) (UniProt P08581); experiment: cross-block ELISA; competitor 006
cMetECDHis (human) [19] = biological target: cMetECDHis (human) (UniProt P08581); experiment: cross-block ELISA; competitor 005
cMetECDHis (human) [20] = biological target: cMetECDHis (human) (UniProt P08581); experiment: cross-block ELISA; competitor 024
cMetECDHis (human) [21] = biological target: cMetECDHis (human) (UniProt P08581); experiment: cross-block ELISA; competitor 062

- pEC50 [1]: 9.02
Substance: IgG4-5D5 (antibody)

- residual binding, % of no competitor (cMetECDHis (human) [2]): 99.6%
- residual binding, % of no competitor (cMetECDHis (human) [3]): 6.6%
- % inhibition (cMetSEMA-567His8 (human)): 95%
- IC50 (cMetSEMA-567His8 (human)): 0.2 µg/mL
- residual binding, % of no competitor (cMetECDHis (human) [4]): 98.1%
- residual binding, % of no competitor (cMetECDHis (human) [5]): 83.9%
- Bottom [6]: 6350 RFU
- residual binding, % of no competitor (cMetECDHis (human) [7]): 97.9%
- residual binding, % of no competitor (cMetECDHis (human) [8]): 97.6%
- pKd (cMetECDHis (human) [9]): 8.23
- koff (cMetECDHis (human) [9]): 0.00125 s⁻¹
- kon (cMetECDHis (human) [9]): 214000 M⁻¹ s⁻¹
- residual binding, % of no competitor (cMetECDHis (human) [10]): 97.3%
- residual binding, % of no competitor (cMetECDHis (human) [11]): 103%
- residual binding, % of no competitor (cMetECDHis (human) [12]): 12.4%
- residual binding, % of no competitor (cMetECDHis (human) [13]): 97.1%
- residual binding, % of no competitor (cMetECDHis (human) [14]): 97.8%
- IC50 [15]: 0.0244 µg/mL
- residual binding, % of no competitor (cMetECDHis (human) [16]): 90.2%
- residual binding, % of no competitor (cMetECDHis (human) [17]): 4.1%
- residual binding, % of no competitor (cMetECDHis (human) [18]): 58.8%
- residual binding, % of no competitor (cMetECDHis (human) [19]): 42.3%
- pEC50 [1]: 9.27
- residual binding, % of no competitor (cMetECDHis (human) [20]): 94.2%
- residual binding, % of no competitor (cMetECDHis (human) [21]): 97.6%
Substance: IgG1-5D5 (antibody)
